# Reference: article PMC9282857
# Key:
# Experiment in all cases: ITC; Affinity-ITC calorimeter, 25°C; 20 mM Tris-HCl pH 7.5, 150 mM NaCl, 1 mM DTT; independent binding model
# [1] = molecular target: pub1-F576A (S. pombe) (UniProt Q92462)
# [2] = molecular target: Pub1 (287-767) (S. pombe) (UniProt Q92462)
# [3] = molecular target: Rsp5 HECT domain (444-809) (S. cerevisiae) (UniProt P39940)
# [4] = molecular target: Rsp5 WW1-HECT domain (224-809) (S. cerevisiae) (UniProt P39940)
substance,measurement,setting,value
Any1 conjugated with K63 di-Ub (from UniProt P0CG63 1-76; P0CG63 1-76) (complex),Kd,[1],2.3 µM
same,fold enhancement of binding against non-conjugated Any1,[2],8 fold
Any1 (17-361) (natural protein),Kd,[2],2.1 µM
K63 di-Ub with a distal end ubiquitin mutant (I44A) (from UniProt P0CG63 1-76; P0CG63 1-76) (complex),Kd,[3],120 µM
Art1 PY motifs containing region (661-710) (domain or fragment),Kd,[4],3.6 µM
